According to US20240343803A1 (SHANDONG SIMCERE BIOPHARMACEUTICAL, published 2024):

T1: human PVRIG-mFc protein (Acro, PVG-H5253) (human, UniProt Q6DKI7 41-171, limits assumed)
T1 construct: extracellular domain; Bought protein; also called PVRIG-ECD-mFc; not shown: mouse Fc tag of the bought protein
T1 sequence (looked up): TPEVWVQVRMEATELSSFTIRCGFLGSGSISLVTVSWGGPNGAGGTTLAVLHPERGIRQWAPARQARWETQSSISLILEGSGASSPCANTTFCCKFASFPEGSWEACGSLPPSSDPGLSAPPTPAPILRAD


Molecular target: T1, human PVRIG-mFc protein (Acro, …)
Test: FACS blocking of PVRIG-mFc binding to CHO-K1-CD112 cells; competitor CD112
Procedure, shortened: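 Zombie violet-stained CHO-K1-CD112 cells were added for 30 min at 4° C, then PE goat anti-mouse IgG Fc (1:250) was applied and mean fluorescence intensity read on a BD Canto II. Curves were fitted with four-parameter logistic models in GraphPad Prism 9. IC50 and curve AUC were reported as percentages of the reference antibody values.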

Binder	% IC50 to COM701-hIgG4 [%]	% IC50 to SO35-hIgG1 [%]	% IC50 to parental Ab [%]	% AUC to COM701-hIgG4 [%]	% AUC to SO35-hIgG1 [%]	% AUC to parental Ab [%]
PVRIG-A105-H2 (Fc fusion, VHH-human IgG1 Fc format is stated for the parental VHH antibodies; not restated for the humanized variants; also called A105 VH2; not shown: human IgG1 hinge-CH2-CH3 (Fc)) EVQLVESGGGLVQPGGSLRLSCAASGRTFDRHTMTWFRQAPGKEREFVATASRIPGDTYYVDSVKGRFTISRDNAKNSLYLQMNSLRAEDTAVYYCAATSAYCSEVDCYEKGSWYDNWGQGTMVTVSS	109	92.3	104	–	–	–
PVRIG-A105-H3 (Fc fusion, VHH-human IgG1 Fc format is stated for the parental VHH antibodies; not restated for the humanized variants; also called A105.VH3; not shown: human IgG1 hinge-CH2-CH3 (Fc)) EVQLVESGGGLVQPGGSLRLSCAASGRTFDRHTMTWFRQAPGKEREFVATASRIPGDTYYVDSVKGRFTISRDNAKNSVYLQMNSLRAEDTAVYYCAATSAYCSEVDCYEKGSWYDNWGQGTMVTVSS	109	91.9	104	109	62.9	95.8
PVRIG-A105 (Fc fusion, Alpaca VHH expressed as VHH-hinge-CH2-CH3 of human IgG1; not shown: human IgG1 hinge-CH2-CH3 (Fc)) EVQLVESGGGLVQAGGSLRLSCAASGRTFDRHTMTWFRQAPGKEREFVATASRIPGDTYYSHSVKGRFTISRDNAKNTVYLQLNNLKPEDTAVYYCAATSAYCSEVDCYEKGSWYDNWGQGIQVTVSS	104	88.3	100	114	65.6	100
PVRIG-A50-H1 (Fc fusion, VHH-human IgG1 Fc format is stated for the parental VHH antibodies; not restated for the humanized variants; also called A50.VH1; not shown: human IgG1 hinge-CH2-CH3 (Fc)) EVQLVESGGGLVQPGGSLRLSCAASGFTFSYYDMSWVRQAPGKGLEWVSTINSNGGRTSYVDSVKGRFTISRDNSKNTLYLQMNSLRAEDTAVYYCVEGDPHNFGLENLSLRDFGSWGQGTMVTVSS	101	78	86.1	115	67.8	94
PVRIG-A50-H2a (Fc fusion, VHH-human IgG1 Fc format is stated for the parental VHH antibodies; not restated for the humanized variants; also called A50.VH2a; not shown: human IgG1 hinge-CH2-CH3 (Fc)) EVQLVESGGGLVQPGGSLRLSCAASGFTFSYYDMSWVRQAPGKGLEWVSTINSNAGRTSYVDSVKGRFTISRDNTKNTLYLQMNSLRAEDTAVYYCVEGDPHNFGLESLSLRDFGSWGQGTMVTVSS	118	91.7	101	112	66	91.6
PVRIG-A50-H1e (Fc fusion, VHH-human IgG1 Fc format is stated for the parental VHH antibodies; not restated for the humanized variants; also called VH1e; not shown: human IgG1 hinge-CH2-CH3 (Fc)) EVQLVESGGGLVQPGGSLRLSCAASGFTFSYYDMSWVRQAPGKGLEWVSTINSNAGRTSYVDSVKGRFTISRDNSKNTLYLQMNSLRAEDTAVYYCVEGDPHNFGLESLSLRDFGSWGQGTMVTVSS	130	101	111	126	74.1	103
PVRIG-A50-H1a (Fc fusion, VHH-human IgG1 Fc format is stated for the parental VHH antibodies; not restated for the humanized variants; also called A50.VH1a; not shown: human IgG1 hinge-CH2-CH3 (Fc)) EVQLVESGGGLVQPGGSLRLSCAASGFTFSYYDMSWVRQAPGKGLEWVSTINSDGGRTSYVDSVKGRFTISRDNSKNTLYLQMNSLRAEDTAVYYCVEGDPHNFGLENLSLRDFGSWGQGTMVTVSS	120	93	103	125	73.5	102
PVRIG-A50 (Fc fusion, Alpaca VHH expressed as VHH-hinge-CH2-CH3 of human IgG1 (heavy-chain antibody); also called PVRIG-50; not shown: human IgG1 hinge-CH2-CH3 (Fc)) EVQLVESGGGLVQPGGSLRLSCAASGFTFSYYDMSWVRQAPGKGLEWVSTINSNGGRTSYVDSVKGRFTISRDNTKNTLYLQMNSLKPEDTAVYYCVEGDPHNFGLENLSLRDFGSWGQGTQVTVSS	117	90.6	100	122	72.1	100
PVRIG-A50-H1c (Fc fusion, VHH-human IgG1 Fc format is stated for the parental VHH antibodies; not restated for the humanized variants; also called A50.VH1c; not shown: human IgG1 hinge-CH2-CH3 (Fc)) EVQLVESGGGLVQPGGSLRLSCAASGFTFSYYDMSWVRQAPGKGLEWVSTINSDGGRTSYVDSVKGRFTISRDNSKNTLYLQMNSLRAEDTAVYYCVEGDPHNFGLENLALRDFGSWGQGTMVTVSS	122	94.7	105	132	77.7	108
PVRIG-A50-H1d (Fc fusion, VHH-human IgG1 Fc format is stated for the parental VHH antibodies; not restated for the humanized variants; also called A50.VH1d; not shown: human IgG1 hinge-CH2-CH3 (Fc)) EVQLVESGGGLVQPGGSLRLSCAASGFTFSYYDMSWVRQAPGKGLEWVSTINSNGGRTSYVDSVKGRFTISRDNSKNTLYLQMNSLRAEDTAVYYCVEGDPHNFGLESLSLRDFGSWGQGTMVTVSS	115	89.1	98.4	121	71.1	98.7
PVRIG-A118-H3 (Fc fusion, VHH-human IgG1 Fc format is stated for the parental VHH antibodies; not restated for the humanized variants; also called A118.VH3; not shown: human IgG1 hinge-CH2-CH3 (Fc)) EVQLVESGGGLVQPGGSLRLSCAASETYFDLYVMGWYRQAPGKDRELVATITYTGSIKYVDSVKGRFTISRGDAKNSLYLQMNSLRAEDTAVYYCNADPSGLGRKVYWGQGTMVTVSS	146	98.8	104	127	65.8	107
PVRIG-A118-H2 (Fc fusion, VHH-human IgG1 Fc format is stated for the parental VHH antibodies; not restated for the humanized variants; also called A118.VH2; not shown: human IgG1 hinge-CH2-CH3 (Fc)) EVQLVESGGGLVQPGGSLRLSCAASETYFDLYVMGWYRQAPGKDRELVATITYTGSIKYVDSVKGRFTISRDNAKNSLYLQMNSLRAEDTAVYYCNADPSGLGRKVYWGQGTMVTVSS	161	109	115	142	73.7	120
PVRIG-A118-H4 (Fc fusion, VHH-human IgG1 Fc format is stated for the parental VHH antibodies; not restated for the humanized variants; also called A118.VH4; not shown: human IgG1 hinge-CH2-CH3 (Fc)) EVQLVESGGGLVQPGGSLRLSCAASETYFDLYVMGWYRQAPGKDRELVATITYTGSIKYVDSVKGRFTISRGDAKNSLSLQMNSLRAEDTAVYYCNADPSGLGRKVYWGQGTMVTVSS	141	95.4	100	116	60.4	97.9
PVRIG-A118-H6 (Fc fusion, VHH-human IgG1 Fc format is stated for the parental VHH antibodies; not restated for the humanized variants; also called A118.VH6; not shown: human IgG1 hinge-CH2-CH3 (Fc)) EVQLVESGGGLVQPGGSLRLSCAASETYFDLYVMGWYRQAPGKDRELVATITYTGSIKIVDSVKGRFTISRGDAKNSLYLQMNSLRAEDTAVYYCNADPSGLGRKVYWGQGTMVTVSS	145	97.8	103	119	61.7	100
PVRIG-A118-H5 (Fc fusion, VHH-human IgG1 Fc format is stated for the parental VHH antibodies; not restated for the humanized variants; also called A118.VH5; not shown: human IgG1 hinge-CH2-CH3 (Fc)) EVQLVESGGGLVQPGGSLRLSCAASETYFDLYVMGWYRQAPGKDRELVATITYTGSIKYVDSVKGRFTISRGDAKNSVYLQMNSLRAEDTAVYYCNADPSGLGRKVYWGQGTMVTVSS	144	97.4	102	127	66.1	107
PVRIG-A118-H1 (Fc fusion, VHH-human IgG1 Fc format is stated for the parental VHH antibodies; not restated for the humanized variants; also called A118.VH1; not shown: human IgG1 hinge-CH2-CH3 (Fc)) EVQLVESGGGLVQPGGSLRLSCAASETYFDLYVMGWYRQAPGKDRELVATITYTGSIYYVDSVKGRFTISRDNAKNSLYLQMNSLRAEDTAVYYCNADPSGLGRKVYWGQGTMVTVSS	141	95.4	100	120	62.4	101
PVRIG-A118 (Fc fusion, Alpaca VHH expressed as VHH-hinge-CH2-CH3 of human IgG1; not shown: human IgG1 hinge-CH2-CH3 (Fc)) QVQLVESGGGLVQAGGSLRLSCAASETYFDLYVMGWYRQAPGKDRELVATITYTGSIKIVDSVKDRFTISRGDAKNTVSLQMSSLKPEDTAVYFCNADPSGLGRKVYWGQGTQVTVSS	141	95.3	100	119	61.7	100
PVRIG-A118-H7 (Fc fusion, VHH-human IgG1 Fc format is stated for the parental VHH antibodies; not restated for the humanized variants; also called A118.VH7; not shown: human IgG1 hinge-CH2-CH3 (Fc)) EVQLVESGGGLVQPGGSLRLSCAASETYFDLYVMGWYRQAPGKDRELVATITYTGSIKYVDSVKGRFTISRGDAKNSLYLQMNSLRAEDTAVYFCNADPSGLGRKVYWGQGTMVTVSS	143	97.1	102	124	64.3	104
